The values that follow come from publication PMC9242855.

The target of this test is CMGE (Cdc45–MCM–GINS–Pol ε) (S. cerevisiae) (UniProt P29469). Nature of the test: negative-stain electron microscopy (2D averages, ReconSil); full CMG assembly reaction on nucleosome-flanked ARS1 origin DNA; DDK-phosphorylated double hexamers incubated with CDK, Dpb11, GINS, Cdc45, Pol ε, Sld3–Sld7, Sld2 and 5 mM ATP, 30 min at 30 °C.

Consider “CMGE (Cdc45–MCM–GINS–Pol ε) (from UniProt P29469 1-868; P24279 1-971; P30665 1-933; P29496 1-775; P53091 1-1017; P38132 1-845; Q08032 1-650; Q03406 1-294; Q12146 1-194; P21951 1-2222; P24482 1-689) (complex)”, for which the percent of CMG particles that are dimers (dCMGE, cis configuration) amounted to 11% and the percent of CMG particles that are dimers (dCMGE, trans configuration) turned out to be 70%.
